We go through 6 substances from patent US20200241008.

The subject of data set [1] is indicator molecule containing the cleavable sequence (GPQGIFGQ) with a terminal biotin group connected via a polyethylene glycol spacer/linker, intact.
The test system of data set [2] is fluorescence resonance energy transfer (FRET) peptide of the commercial MMP-9 activity assay kit.

Chain of active MMP-9 (Alere San Diego) (chain, as listed by the source): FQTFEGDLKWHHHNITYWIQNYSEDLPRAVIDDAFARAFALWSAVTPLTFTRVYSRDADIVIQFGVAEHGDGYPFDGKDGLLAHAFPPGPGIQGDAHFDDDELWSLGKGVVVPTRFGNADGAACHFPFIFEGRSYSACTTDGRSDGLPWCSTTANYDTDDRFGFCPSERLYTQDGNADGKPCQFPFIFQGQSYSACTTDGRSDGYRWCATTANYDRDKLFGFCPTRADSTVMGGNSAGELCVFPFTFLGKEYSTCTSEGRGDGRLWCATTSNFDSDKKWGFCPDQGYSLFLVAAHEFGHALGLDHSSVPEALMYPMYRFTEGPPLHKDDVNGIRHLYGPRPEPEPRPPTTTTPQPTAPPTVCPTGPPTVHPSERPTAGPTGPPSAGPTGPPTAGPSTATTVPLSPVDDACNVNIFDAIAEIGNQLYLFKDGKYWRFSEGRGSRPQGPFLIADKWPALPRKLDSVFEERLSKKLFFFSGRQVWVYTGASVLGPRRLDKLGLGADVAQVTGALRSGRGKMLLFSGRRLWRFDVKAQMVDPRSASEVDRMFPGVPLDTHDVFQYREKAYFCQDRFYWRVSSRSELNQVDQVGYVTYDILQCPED
Chain of MMP2 (Enzo) (chain, as listed by the source): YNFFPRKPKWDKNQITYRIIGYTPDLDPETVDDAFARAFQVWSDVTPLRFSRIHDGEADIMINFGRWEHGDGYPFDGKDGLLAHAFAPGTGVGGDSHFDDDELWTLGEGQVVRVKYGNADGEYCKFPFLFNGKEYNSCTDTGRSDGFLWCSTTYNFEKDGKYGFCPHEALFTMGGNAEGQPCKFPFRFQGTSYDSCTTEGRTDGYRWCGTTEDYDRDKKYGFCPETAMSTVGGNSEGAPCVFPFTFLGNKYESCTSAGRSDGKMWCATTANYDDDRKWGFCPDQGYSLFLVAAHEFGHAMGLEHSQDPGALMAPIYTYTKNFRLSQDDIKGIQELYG
Chain of MMP3 (Enzo) (chain, as listed by the source): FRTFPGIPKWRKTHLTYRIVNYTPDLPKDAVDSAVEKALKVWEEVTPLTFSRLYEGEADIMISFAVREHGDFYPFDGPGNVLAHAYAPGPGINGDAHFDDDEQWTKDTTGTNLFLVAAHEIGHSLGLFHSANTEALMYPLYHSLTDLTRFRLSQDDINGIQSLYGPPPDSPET
Chain of MMP9 (Enzo) (chain, as listed by the source): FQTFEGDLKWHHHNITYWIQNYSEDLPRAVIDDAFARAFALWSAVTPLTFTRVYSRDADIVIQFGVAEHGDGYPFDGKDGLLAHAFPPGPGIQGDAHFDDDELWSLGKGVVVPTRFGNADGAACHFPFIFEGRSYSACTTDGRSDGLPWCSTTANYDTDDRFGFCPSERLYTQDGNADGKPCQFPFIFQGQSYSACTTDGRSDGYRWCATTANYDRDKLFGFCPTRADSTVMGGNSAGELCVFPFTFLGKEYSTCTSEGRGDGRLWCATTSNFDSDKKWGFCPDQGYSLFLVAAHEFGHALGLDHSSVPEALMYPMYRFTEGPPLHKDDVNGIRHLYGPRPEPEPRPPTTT
Chain of MMP8 (Enzo) (chain, as listed by the source): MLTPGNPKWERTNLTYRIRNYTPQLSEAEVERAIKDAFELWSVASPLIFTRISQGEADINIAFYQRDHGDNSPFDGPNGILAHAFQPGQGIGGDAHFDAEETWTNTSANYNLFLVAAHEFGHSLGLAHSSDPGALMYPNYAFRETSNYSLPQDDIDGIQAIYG
Chain of MMP10 (Enzo) (chain, as listed by the source): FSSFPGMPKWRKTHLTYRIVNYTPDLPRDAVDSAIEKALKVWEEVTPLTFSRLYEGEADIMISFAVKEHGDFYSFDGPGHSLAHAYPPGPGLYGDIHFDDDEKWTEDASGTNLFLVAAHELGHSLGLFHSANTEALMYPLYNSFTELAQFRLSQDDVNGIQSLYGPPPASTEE

The substance MMP8 (Enzo) displayed a reader value at 0.5 µg/ml MMP (lateral flow) in data set [1] of 1140 reader units.
With MMP10 (Enzo), the reader value at 0.5 µg/ml MMP (lateral flow) in data set [1] is 444 reader units.
The same measure, in the same setting: the result for MMP2 (Enzo) reads 1610 reader units; that for MMP9 (Enzo), 3840 reader units.
MMP3 (Enzo) showed a reader value at 0.5 µg/ml MMP (lateral flow) in data set [1] of 336 reader units.
With active MMP-9 (Alere San Diego), in data set [2], the Reference assay read-out at 0 ng/ml MMP9 (blank) was found to be 3820, the Reference assay read-out at 3.90625 ng/ml MMP9 came to 7600, the Reference assay read-out at 7.8125 ng/ml MMP9 worked out at 13100 and the Reference assay read-out at 15.625 ng/ml MMP9 came out at 31300. Further, in data set [2], the Reference assay read-out at 31.25 ng/ml MMP9 turned out to be 62300, the Reference assay read-out at 62.5 ng/ml MMP9 came out at 113000, the Reference assay read-out at 125 ng/ml MMP9 is 163000 and the Reference assay read-out at 250 ng/ml MMP9 is 204000. In data set [1], this substance returned an OD405 at 0.39 ng/ml MMP9 (ELISA, streptavidin plate, CF1522-AP) of 0.14 OD405; an OD405 at 0.78 ng/ml MMP9 (ELISA, streptavidin plate, CF1522-AP) of 0.14 OD405; an OD405 at 1.56 ng/ml MMP9 (ELISA, streptavidin plate, CF1522-AP) of 0.14 OD405; an OD405 at 3.13 ng/ml MMP9 (ELISA, streptavidin plate, CF1522-AP) of 0.13 OD405. In data set [1], this substance registered an OD405 at 6.25 ng/ml MMP9 (ELISA, streptavidin plate, CF1522-AP) of 0.17 OD405; an OD405 at 12.50 ng/ml MMP9 (ELISA, streptavidin plate, CF1522-AP) of 0.18 OD405; an OD405 at 25.00 ng/ml MMP9 (ELISA, streptavidin plate, CF1522-AP) of 0.27 OD405; an OD405 at 50.00 ng/ml MMP9 (ELISA, streptavidin plate, CF1522-AP) of 0.5 OD405. Moreover, in data set [1], the Ultimate ELTABA reader value at 3.90625 ng/ml MMP9 (lateral flow) was 413 reader units, the Ultimate ELTABA reader value at 7.8125 ng/ml MMP9 (lateral flow) stood at 524 reader units, the Ultimate ELTABA reader value at 15.625 ng/ml MMP9 (lateral flow) was 882 reader units and the Ultimate ELTABA reader value at 31.25 ng/ml MMP9 (lateral flow) was determined as 2030 reader units. Moreover, in data set [1], the Ultimate ELTABA reader value at 62.5 ng/ml MMP9 (lateral flow) was found to be 3830 reader units; the Ultimate ELTABA reader value at 125 ng/ml MMP9 (lateral flow) is 5580 reader units; the Ultimate ELTABA reader value at 250 ng/ml MMP9 (lateral flow) came out at 6220 reader units; the “detectable limit for MMP-9 (lateral flow, sample volume 75 µl)” value is “approximately 4 ng/ml”. For the same substance, in data set [1], the reader value at 0.9765625 ng/ml MMP9 (lateral flow) was found to be 338 reader units, the reader value at 0.98 ng/ml MMP9 (lateral flow) worked out at 338 reader units, the reader value at 1.95 ng/ml MMP9 (lateral flow) turned out to be 343 reader units and the reader value at 1.953125 ng/ml MMP9 (lateral flow) amounted to 343 reader units. In data set [1], this substance returned a reader value at 3.90625 ng/ml MMP9 (lateral flow) of 413 reader units, a reader value at 3.91 ng/ml MMP9 (lateral flow) of 413 reader units, a reader value at 7.81 ng/ml MMP9 (lateral flow) of 524 reader units and a reader value at 7.8125 ng/ml MMP9 (lateral flow) of 524 reader units. Also, in data set [1], the reader value at 15.625 ng/ml MMP9 (lateral flow) is 882 reader units, the reader value at 15.63 ng/ml MMP9 (lateral flow) turned out to be 882 reader units, the reader value at 31.25 ng/ml MMP9 (lateral flow) turned out to be 2030 reader units and the reader value at 62.5 ng/ml MMP9 (lateral flow) is 3830 reader units. In data set [1], the reader value at 62.50 ng/ml MMP9 (lateral flow) is 3830 reader units, the reader value at 125 ng/ml MMP9 (lateral flow) amounted to 5580 reader units, the reader value at 250 ng/ml MMP9 (lateral flow) was 6220 reader units and the reader value at 500 ng/ml MMP9 (lateral flow) is 6730 reader units. Also, in data set [1], the reader value at 1000 ng/ml MMP9 (lateral flow) worked out at 6770 reader units; the “sensitivity of the MMP9 standard curves (ELISA and lateral flow)” value was “sensitivity down to 4 ng/ml”.
